Experimental data reported in patent US20160185837A1 (AstraZeneca / MedImmune, published 2016).
Ends that are not written are not given here.

T1: human GIP receptor (human, UniProt P48546 22-466)
T1 sequence (looked up): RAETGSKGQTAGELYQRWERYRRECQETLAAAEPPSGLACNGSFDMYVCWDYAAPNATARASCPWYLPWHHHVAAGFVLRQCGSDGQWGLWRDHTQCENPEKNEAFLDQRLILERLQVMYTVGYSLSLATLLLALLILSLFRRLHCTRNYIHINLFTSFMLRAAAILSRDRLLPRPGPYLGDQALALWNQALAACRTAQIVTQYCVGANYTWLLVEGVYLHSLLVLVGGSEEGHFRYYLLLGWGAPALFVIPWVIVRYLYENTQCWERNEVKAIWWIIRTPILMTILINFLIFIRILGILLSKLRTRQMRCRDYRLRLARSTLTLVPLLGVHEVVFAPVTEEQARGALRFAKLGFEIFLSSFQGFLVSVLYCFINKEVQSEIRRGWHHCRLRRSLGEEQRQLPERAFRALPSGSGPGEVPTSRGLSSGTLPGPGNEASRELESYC

T2: mouse GIP receptor (mouse, UniProt Q0P543 19-460)
T2 sequence (looked up): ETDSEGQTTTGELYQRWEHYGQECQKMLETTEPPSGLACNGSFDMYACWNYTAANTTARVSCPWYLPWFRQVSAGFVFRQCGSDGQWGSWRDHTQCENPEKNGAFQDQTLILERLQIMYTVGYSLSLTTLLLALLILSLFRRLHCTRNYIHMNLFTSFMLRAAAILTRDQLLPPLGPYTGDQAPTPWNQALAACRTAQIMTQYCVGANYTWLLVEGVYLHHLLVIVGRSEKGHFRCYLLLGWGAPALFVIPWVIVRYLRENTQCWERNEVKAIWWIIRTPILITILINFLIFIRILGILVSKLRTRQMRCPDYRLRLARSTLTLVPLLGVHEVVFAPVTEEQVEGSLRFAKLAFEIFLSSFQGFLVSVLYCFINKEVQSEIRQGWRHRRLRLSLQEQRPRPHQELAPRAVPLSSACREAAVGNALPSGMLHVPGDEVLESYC


Key:
Experiment in all cases: cell-based or functional assay
human glucagon receptor = human glucagon receptor (human, UniProt P47871 26-477)
human GLP-1 receptor = human GLP-1 receptor (human, UniProt P43220 24-463)
human GIP receptor = target: T1, human GIP receptor
mouse GIP receptor = target: T2, mouse GIP receptor

Row | Binder | cAMP EC50 (human glucagon receptor) [nM] | cAMP EC50 (human GLP-1 receptor) [nM] | cAMP EC50 (human GIP receptor) [nM] | cAMP EC50 (mouse GIP receptor) [nM] | cAMP EC50, hGIPr (C3) line (human GIP receptor) [nM]
1 | YSEGTFTSDYSKLLEEEAVRLFIEWLVKGPGGGGGGGATHTCPPC (Fc fusion) [IP283] | > 17000 | 0.56 | 0.049 | – | –
2 | IP229 (Fc fusion) YSEGTFTSDYSKLLEEEAVRLFIEWLLAGAAAGGSGSTASSGSGSATGGGGAATHTCPPCPAPEF | 28 | 0.15 | 0.0062 | – | –
3 | IP198 (Fc fusion) HGEGTFTSDVSSYMERQAIDEFIAWLLKGGAAAGGSGSTASSGSGSATGGGGAATHTCPPCPAPEF | – | 0.042 | 6.3 | – | –
4 | IP206 (Fc fusion) HGEGTFTSDVSSYMEAQSIREFIAWLVKGPAPPGGSGSTASSGSGSATGGGGAATHTCPPCPAPEF | – | 0.084 | – | – | –
5 | IP423 (Fc fusion) YSEGTHTSDLRILLEEEAVRLFIEFLLAGGGSGGGGSGGGGSGGGGSGGGGSGGGGSGGGGSGGGGSACPPC | > 34.2 | > 34.2 | – | 12 | –
6 | IP410 (Fc fusion) YSEGTFTSLYRIHKEEEAVRLFIEKLLAGGGSGGGGSGGGGSGGGGSGGGGSGGGGSGGGGSGGGGSACPPC | > 7.99 | > 7.99 | – | – | > 7.99
7 | IP416 (Fc fusion) YSEGTFTSDYSKLLEEEAVRLFIEWLLAGGGSGGGGSGGGGSGGGGSGGGGSGGGGSGGGGSGGGGSACPPC | 3.4 | 0.1 | – | 1.1 | –
8 | IP415 (Fc fusion) HSQGTFTSDYSKILEEEAVRLFIEWLLAGGGSGGGGSGGGGSGGGGSGGGGSGGGGSGGGGSGGGGSACPPC | 0.018 | 0.038 | – | 5.6 | –
9 | IP252 (Fc fusion) YSEGTFTSDYSKLLEEEAVRLFIEWLVKGPGGGGGSGGGGSGGGGSAESKYGPPCPPCPAPEAA | > 3200 | 0.19 | 0.024 | – | –
10 | IP285 (Fc fusion) YSEGTFTSDYSKLLEEEAVRLFIEWLVKGPGGGGGGGGGGGGGGGGGGGGGGGATHTCPPC | 1600 | 0.076 | 0.0087 | – | –
11 | IP172 (Fc fusion) HGEGTFTSDVSSYMERQAIDEFIAWLLAGAAAGGSGSTASSGSGSATGGGGAATHTCPPCPAPEF | > 15000 | 0.057 | 16 | – | –
12 | IP175 (Fc fusion) HGEGTFTSDVSSYMESQLVREFIAWLVKGAAAGGSGSTASSGSGSATGGGGAATHTCPPCPAPEF | – | 0.051 | – | – | –
13 | IP215 (Fc fusion) HGEGTFTSDVSSYMESQLVDEFIAWLVKGAAAGGSGSTASSGSGSATGGGGAATHTCPPCPAPEF | – | 0.05 | – | – | –
14 | IP214 (Fc fusion) HGEGTFTSDVSSYMEAQKIDEFIAWLVKGAPPGGSGSTASSGSGSATGGGGAATHTCPPCPAPEF | – | 0.075 | – | – | –
15 | YSEGTFTSDYSKLLEEEAVRLFIEWLVKGPGGGGGGGGGGGGATHTCPPC (Fc fusion) [IP284] | 18000 | 0.2 | 0.039 | – | –
16 | IP290 (Fc fusion) YSEGTFTSDYSKLLEEEAVRLFIEWLVKGPGGGGGGGGGGGGGGGGGGGGACPPC | > 2590 | 0.14 | 0.018 | – | –
17 | IP411 (Fc fusion) YGEGTFTSDYSKLLEEEAVRLFIEWLVKGPGGGGGGGGGGGGGGGGGGGGACPPC | > 631 | 0.42 | – | > 631 | –
18 | IP210 (Fc fusion) YSEGTFTSDLSKLLEEEAVRLFIEWLVKGPAAAGGSGSTASSGSGSATGGGGAATHTCPPCPAPEF | – | 0.18 | 0.019 | – | –
19 | IP211 (Fc fusion) YSEGTFTSDYSSYMEEEAVRLFIEWLVKGPAAAGGSGSTASSGSGSATGGGGAATHTCPPCPAPEF | – | 0.23 | 0.5 | – | –
20 | IP286 (Fc fusion) YSEGTFTSDYSKLLEEEAVRLFIEWLVKGPGGGGGGGGGGGGGGGGGGGGGGGGGGGATHTCPPC | 920 | 0.072 | 0.008 | – | –
21 | YSEGTFTSDYSKLLEEEAVRLFIEWLVKGPGGGGGSATHTCPPCPAPEF (Fc fusion, cysteine pairing not given here; also: fused to IgG1-TM Fc) [IP234] | > 15000 | 0.74 | 0.043 | – | –
22 | IP254 (Fc fusion) YSEGTFTSDYSKLLEEEAVRLFIEWLLAGNGTGGGGSGGGGSGGGGSGGGGSATHTCPPCPAPEF | 160 | 0.53 | 0.026 | – | –
23 | IP239 (Fc fusion) YSEGTFTSDYSKLLEEEAVRLFIEWLVKGPAAAGGSGSTASSGSGSATGGGGAACPPCPAPEF | > 990 | 0.088 | 0.008 | – | –
24 | IP421 (Fc fusion) HGEGTFTSDLSKQMEEECVRLFIEWLKNGGPSSGAPPPGCGSGGGGSGGGGSGGGGSGGGGSGGGGSGGGGSGGGGSACPPC | > 106 | 3 | – | > 106 | –
25 | IP281 (Fc fusion) YSEGTFTSDYSKLLEEEAVRLFIEWLVKGPGGGGGSGGGGSGGGGSGGGGSACPPC | 3800 | 0.087 | 0.014 | – | –
26 | IP256 (Fc fusion) YSEGTFTSDYSKLLEEEAVRLFIEWLLAGGHNITQGGGGGSGGGGSGGGGSGGGGSATHTCPPCPAPEF | > 420 | 0.4 | 0.037 | – | –
27 | IP255 (Fc fusion) YSEGTFTSDYSKLLEEEAVRLFIEWLKNGTGGGGGSGGGGSGGGGSGGGGSATHTCPPCPAPEF | > 4600 | 0.22 | 0.07 | – | –
28 | IP265 (Fc fusion) YSEGTFTSDYSKLLEEEAVRLFIEWLVKGPGKGGGSGGGGSGGGGSGGGGSATHTCPPCPAPEF | > 13000 | 0.1 | 0.015 | – | –
